The target of this assay is PlpA-PhoA fusion protein of strain SPRU98 (Streptococcus pneumoniae; E. coli).

On to DsbA (from UniProt P0AEG4) (enzyme), for which the alkaline phosphatase activity of SPRU98 whole bacteria (activity units per mg of total protein) was found to be 138.

The values above are taken from patent US5981229.
